Reference: patent publication US20220389118A1 (Chugai, published 2022)
Substitutions are numbered along the chain they refer to.

T1: human FcγRIIa type R extracellular domain with C-terminal His tag (human, UniProt P12318 34-217)
T1 construct: extracellular domain; also called FcγRIIaR; FcgRIIaR
T1 sequence (looked up): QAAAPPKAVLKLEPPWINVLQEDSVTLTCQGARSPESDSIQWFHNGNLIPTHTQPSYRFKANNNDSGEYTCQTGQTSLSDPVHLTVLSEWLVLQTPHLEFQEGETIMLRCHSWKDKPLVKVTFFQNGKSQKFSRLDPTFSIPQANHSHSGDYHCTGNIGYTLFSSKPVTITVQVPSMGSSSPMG

T2: human FcγRIIb extracellular domain with C-terminal His tag (human, UniProt P31994 43-217)
T2 construct: extracellular domain; also called FcgRIIb
T2 sequence (looked up): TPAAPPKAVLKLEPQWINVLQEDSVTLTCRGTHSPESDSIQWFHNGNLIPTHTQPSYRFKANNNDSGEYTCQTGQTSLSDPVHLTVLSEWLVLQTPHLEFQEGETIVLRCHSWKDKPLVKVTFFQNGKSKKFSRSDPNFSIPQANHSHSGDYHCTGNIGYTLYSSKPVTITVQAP

B1: IL6R-BP190/IL6R-L (antibody, human IgG1, kappa)
heavy: QVQLQESGPGLVKPSETLSLTCAVSGHSISHDHAWSWVRQPPGEGLEWIGFISYSGITNYNPSLQGRVTISRDNSKNTLYLQMNSLRAEDTAVYYCARSLARTTAMDYWGEGTLVTVSSASTKGPSVFPLAPSSKSTSGGTAALGCLVKDYFPEPVTVSWNSGALTSGVHTFPAVLQSSGLYSLSSVVTVPSSSLGTQTYICNVNHKPSNTKVDKKVEPKSCDKTHTCPPCPAPELLGDDSVFLFPPKPKDTLMISRTPEVTCVVVDVSDEDGEVKFNWYVDGVEVHNAKTKPREEQYNSTYRVVSVLTVLHQDWLNGKEYKCKVSNKALPKPIEKTISKAKGQPREPQVYTLPPSRDELTKNQVSLTCLVKGFYPSDIAVEWESNGQPENNYKTTPPVLDSDGSFFLYSKLTVDKSRWQQGNVFSCSVMHEALHNHYTQESLSLSP
light: not shown
notes: copies: 2 + 2
B2: IL6R-BP207/IL6R-L (antibody, human IgG1, kappa)
heavy: B1 heavy with E235D, D239G, D270H, G273P, K332R
light: not shown
notes: copies: 2 + 2
B3: IL6R-BP213/IL6R-L (antibody, human IgG1, kappa)
heavy: B1 heavy with E235D, D239G, K332R
light: not shown
notes: copies: 2 + 2
B4: IL6R-BP205/IL6R-L (antibody, human IgG1, kappa)
heavy: B1 heavy with E235D, D239G, D270H, Y298D, K332R
light: not shown
notes: copies: 2 + 2
B5: IL6R-BP118/IL6R-L (antibody, human IgG1, kappa)
heavy: B1 heavy with D239G, D270H, G273P, K328S, K332A
light: not shown
notes: IgG1 type
B6: IL6R-BP120/IL6R-L (antibody, human IgG1, kappa)
heavy: B1 heavy with D239G, D270H, G273P, K328E, K332A
light: not shown
notes: IgG1 type
B7: IL6R-BP911/IL6R-L (antibody, human IgG1, kappa)
heavy: B1 heavy with D239G, D270H, G273P
light: not shown
notes: IgG1 type
B8: IL6R-BP100/IL6R-L (antibody, human IgG1, kappa)
heavy: B1 heavy with D239G, S269A, D270H, G273P, K332A
light: not shown
notes: IgG1 type
B9: IL6R-BP107/IL6R-L (antibody, human IgG1, kappa)
heavy: B1 heavy with D239G, D270E, G273P, K332A
light: not shown
notes: IgG1 type
B10: IL6R-BP116/IL6R-L (antibody, human IgG1, kappa)
heavy: B1 heavy with D239G, D270H, G273P, K328T, K332A
light: not shown
notes: IgG1 type
B11: IL6R-BP117/IL6R-L (antibody, human IgG1, kappa)
heavy: B1 heavy with D239G, D270H, G273P, K328D, K332A
light: not shown
notes: IgG1 type
B12: IL6R-BP126/IL6R-L (antibody, human IgG1, kappa)
heavy: B1 heavy with D239G, D270H, G273P, K328L, K332A
light: not shown
notes: IgG1 type
B13: IL6R-BP103/IL6R-L (antibody, human IgG1, kappa)
heavy: B1 heavy with D239G, S269V, D270H, G273P, K332A
light: not shown
notes: IgG1 type
B14: IL6R-2B171/IL6R-L (antibody, human IgG1, kappa)
heavy: B1 heavy with D239G, D270H, G273P, V325L, K332A
light: not shown
notes: IgG1 type
B15: IL6R-BP102/IL6R-L (antibody, human IgG1, kappa)
heavy: B1 heavy with D239G, S269Q, D270H, G273P, K332A
light: not shown
notes: IgG1 type
B16: IL6R-BP078/IL6R-L (antibody, human IgG1, kappa)
heavy: B1 heavy with D239G, D270H, G273P, K332M
light: not shown
notes: IgG1 type

Each binder was assayed against T3, human FcγRIIIa type V (allotype V158) extracellular domain with C-terminal His tag (human, UniProt P08637 17-208) (assay: SPR (Biacore), antibody captured, FcγR analyte).
T3 construct: extracellular domain; also called FcγRIIIaV; FcγRIIIa V type; not shown: His tag at the C terminus
T3 sequence (P08637 17-208 F176V): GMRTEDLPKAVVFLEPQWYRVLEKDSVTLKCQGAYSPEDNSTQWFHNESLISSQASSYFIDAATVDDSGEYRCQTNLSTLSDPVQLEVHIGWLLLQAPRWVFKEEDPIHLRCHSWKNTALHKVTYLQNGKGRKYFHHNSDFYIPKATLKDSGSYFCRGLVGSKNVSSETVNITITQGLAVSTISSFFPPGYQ

Binder | Kd [µM]
B1 | 45
B2 | 65
B3 | 63
B4 | 68

What follows are binders tested against T1, human FcγRIIa type R extracellular … (assay: SPR (Biacore), antibody captured, FcγR as analyte).

Binder | Kd [µM]
B5 | 15
B6 | 9.6
B7 | 16
B8 | 7.8
B9 | 12
B10 | 15
B11 | 9.2
B12 | 11
B13 | 11
B14 | 16
B15 | 8.4
B16 | 15

What follows are binders tested against T2, human FcγRIIb extracellular domain with … (assay: SPR (Biacore), antibody captured, FcγR as analyte).

Binder | KD(IIb) of parent polypeptide/KD(IIb) of altered polypeptide [fold vs IL6R-B3/IL6R-L] | Kd [µM]
B5 | 2.7 | 
B6 | 3 | 1
B7 | 3.5 | 
B8 | 2.9 | 
B9 | 3.3 | 
B10 | 2.8 | 
B11 | 3.9 | 0.8
B12 | 2.2 | 
B13 | 2.5 | 
B14 | 2.9 | 
B15 | 3.4 | 0.9
B16 | 2.8 | 
